Here are results for 17 molecules from US20230242658A1 (published 2023).

In test [1] the target is T1, cynomolgus monkey 4-1BB on CHO-K1 cells (cynomolgus monkey).
T1 chain: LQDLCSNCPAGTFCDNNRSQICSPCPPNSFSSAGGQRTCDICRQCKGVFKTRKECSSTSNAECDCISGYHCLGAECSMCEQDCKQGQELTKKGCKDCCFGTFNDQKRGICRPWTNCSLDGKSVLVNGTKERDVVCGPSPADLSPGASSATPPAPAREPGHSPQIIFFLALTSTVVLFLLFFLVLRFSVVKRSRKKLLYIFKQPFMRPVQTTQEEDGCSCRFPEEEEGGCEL
Nature of the test: FACS; FIG. 12F. (Flow cytometry measures light scatter and fluorescence of single cells or particles in a stream.)

The target of test [2] is T2, human 4-1BB on CHO-K1 cells (human, UniProt Q07011 24-255). Nature of the test: FACS blocking of 4-1BBL; FIG. 14F.
In test [3] the target is T2, human 4-1BB on CHO-K1 cells. Nature of the test: FACS.
Target sequence in this assay (Q07011 24-255): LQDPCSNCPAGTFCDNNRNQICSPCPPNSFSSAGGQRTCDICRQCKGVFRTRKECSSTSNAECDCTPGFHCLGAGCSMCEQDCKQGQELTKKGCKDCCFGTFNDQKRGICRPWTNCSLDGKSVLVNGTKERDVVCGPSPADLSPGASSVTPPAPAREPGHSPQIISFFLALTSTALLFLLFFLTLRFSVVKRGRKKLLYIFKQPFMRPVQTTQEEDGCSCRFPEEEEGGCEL
Test [4] concerns the target T1, cynomolgus monkey 4-1BB on CHO-K1 cells. Nature of the test: FACS; FIG. 12C.
Test [5] has as its target T2, human 4-1BB on CHO-K1 cells. The test is described as follows: FACS. The source holds these as a separate data set.
The target is the same in test [6]. Nature of the test: FACS blocking of 4-1BBL.
Test [7] deals with T1, cynomolgus monkey 4-1BB on CHO-K1 cells. The test is described as follows: FACS; FIG. 12K.
The target in test [8] is T2, human 4-1BB on CHO-K1 cells. Nature of the test: FACS; FIG. 11L.
Target sequence in this assay (Q07011 24-255): as above
Test [9] shares this target. The test is described as follows: FACS blocking of 4-1BBL. This is another data set of the same source.
Target sequence in this assay (Q07011 24-255): as above
Test [10] shares this target. Nature of the test: FACS; FIG. 11M.
Target sequence in this assay (Q07011 24-255): as above
Test [11] deals with T1, cynomolgus monkey 4-1BB on CHO-K1 cells. The test is described as follows: FACS; FIG. 12L.
The target of test [12] is human PD-L1 on CHO-K1 cells (human, UniProt Q9NZQ7 19-290). Nature of the test: FACS.
Test [13] concerns the target T1, cynomolgus monkey 4-1BB on CHO-K1 cells. Nature of the test: FACS.
Test [14] addresses T2, human 4-1BB on CHO-K1 cells. The test is described as follows: FACS; FIG. 11K.
Target sequence in this assay (Q07011 24-255): as above
Test [15] has as its target T1, cynomolgus monkey 4-1BB on CHO-K1 cells. Nature of the test: FACS; FIG. 12J.
The target is the same in test [16]. Nature of the test: FACS.

Where a chain is given by its changes, count along the chain named.

Chain of human PD-L1 on CHO-K1 cells (Q9NZQ7 19-290): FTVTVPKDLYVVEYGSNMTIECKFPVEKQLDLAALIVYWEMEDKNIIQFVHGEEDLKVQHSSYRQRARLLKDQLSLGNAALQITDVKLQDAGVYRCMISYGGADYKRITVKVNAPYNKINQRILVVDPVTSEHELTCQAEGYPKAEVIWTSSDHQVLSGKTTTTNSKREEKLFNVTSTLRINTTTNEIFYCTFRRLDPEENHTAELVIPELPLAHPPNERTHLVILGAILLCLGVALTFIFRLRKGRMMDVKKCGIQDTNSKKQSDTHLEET

B1: PR001837 (antibody, V domains shown)
VH: EVQLLESGGGLVQPGGSLRLSCEASGFTFSSYAMSWVRQAPEKGLEWVSSISGSGGSTFYADSVKGRFTISRDNSKNTLYLQMNSLRAEDTAVYYCAKEGTTETDDYHYNMDVWGQGTTVTVSS
In general, EC50 refers to the concentration at which the effect is half-maximal. One may read the IC50 as the concentration at which inhibition is half-maximal. B1: the EC50 in [1] worked out at 1.63 nM; in [3] it was 0.386 nM. This molecule also registered an IC50 in test [2] of 1.96 nM.

B2: PR001768 (antibody, V domains shown)
VH: EVQLLESGGGLVQPGGSLRLSCAASGFTFSNYAMTWVRQAPGKGLEWVSSISGSGDSTYYADSVKGRFTISRDNSKNTLYLQMNSLRAEDTAVYYCAKEGTGTTSDYYYNVDVWGQGTTVTVSS
On to B2, for which the EC50 was 6.97 nM in test [4] and 0.846 nM in test [5].

B3: PR001771 (antibody, V domains shown)
VH: B2 VH with A40P, D56G
Molecule B3 had a half-inhibitory concentration (IC50) in test [6] of 21.6 nM. Moreover, the concentration giving a half-maximal response (EC50) in test [4] was determined as 3.77 nM; in [5], 0.532 nM.

B4: PR007295 (antibody, V domains shown)
VH: EVQLVESGGGLVKPGGSLRLSCAASGFTFSDYYMSWIRQAPGKGLEWVSYISNNGSTIYYADSVKGRFTISRDNAKNSLYLQMNSLRAEDTAVYYCARVRPGGSGNYWDWFDPWGQGTMVTVSS
Consider B4, for which the EC50 is 11.1 nM in [7] and 18.9 nM in test [8]. The molecule further gave a 50% inhibitory concentration (IC50) in test [9] of 16.1 nM.

B5: PR007300 (antibody, V domains shown)
VH: B4 VH with A23T, A24T, S35N, I37V, M119P
In the case of B5, the EC50 came to 2.77 nM in test [10] and 1.94 nM in test [11]. Moreover, the IC50 in test [9] stood at 2.87 nM.

B6: PR007297 (antibody, V domains shown)
VH: B4 VH with N53R, N54S, M119L
For the molecule B6, the figures for the EC50 in [7] and in [8] were 8.84 nM and 11.7 nM, respectively. Besides, the half-inhibitory concentration (IC50) in test [9] is 11.3 nM.

B7: PR004270 (bispecific antibody)
chain 1: EVQLVESGGGLVQPGGSLRLSCAASGFTFSSYWMSWVRQAPGKGLEWVANIKQEGSEKYYVDSVKGRFTISRDNAKNSLYLQMNSLRAEDTAVYYCARDRAVAGAFDIWGQGTMVTVSSASTKGPSVFPLAPSSKSTSGGTAALGCLVKDYFPEPVTVSWNSGALTSGVHTFPAVLQSSGLYSLSSVVTVPSSSLGTQTYICNVNHKPSNTKVDKKVEPKSC
chain 2: not shown
For the molecule B7, the results for the EC50 in test [12] and in [13] were 0.963 nM and 1.55 nM, respectively.

B8: PR007292 (antibody, V domains shown)
VH: EVQLVESGGGLVKPGGSLRLSCAASGFTFSDYYMSWIRQAPGKGLEWVSYISSSGSTIDYADSVKGRFTISRDNAKNSLYLQMNSLRAEDTAVYYCAREREEVAGTLDYDNWGQGTLVTVSS
In the case of B8, the EC50 in [14] is 1.81 nM; in test [15], 4.88 nM. The molecule also registered a 50% inhibitory concentration (IC50) in [9] of 5.37 nM.

B9: PR007294 (antibody, V domains shown)
VH: B8 VH with A23V, I37F, S53G, S56T, E102P, Y109F
For the molecule B9, the EC50 in [14] was found to be 1.14 nM; in test [15], 1.99 nM. This molecule also registered an IC50 in test [9] of 6.61 nM.

B10: PR007296 (antibody, V domains shown)
VH: B8 VH with A23V, I37F, S53G, S56T, E102A, Y109F, L117P
For the molecule B10, the half-maximal effective concentration (EC50) in [7] was 3.28 nM; in test [8], 3.81 nM. For the same molecule, in test [9], the midpoint of inhibition, the IC50, lay at 4.19 nM.

B11: PR007293 (antibody, V domains shown)
VH: B8 VH with I37F, S52N, D59Y, A61E, D62Y, Y109F, N111Y
Turning to B11, the EC50 in test [14] was determined as 2.25 nM; in test [15], 2.1 nM. Also, in test [9], inhibition was half-maximal at 11.2 nM (IC50).

B12: PR007298 (antibody, V domains shown)
VH: B8 VH with I37V, Y80F, Q82E, Y109F
In the case of B12, the EC50 in test [10] came out at 3.71 nM; in test [11] it was 2.33 nM. Further, the IC50 in test [9] stood at 6.7 nM.

B13: PR001774 (antibody, V domains shown)
VH: EVQLVESGGGLVQPGGSLRLSCAASGFTFSSFAMTWVRQAPEKGLEWVSTISGSGDTTYYADSVKGRFTISRDSSKNTLYLQMNSLRAEDSAVYFCAKEATAMASDYYYGVDVWGQGTTVTVSS
The molecule B13 gave an IC50 in test [6] of around 2.12 nM. In addition, the results for the concentration for a half-maximal effect (EC50) in test [4] and in test [5] were 6.73 nM and 1.27 nM, respectively.

B14: PR007299 (antibody, V domains shown)
VH: EVQLVESGGGLVKPGGSLRLSCAASGFTFSDYQMSWLRQAPGKGLEWVSYISSSGRTIYYADSVKGRFTISRDNAKNSVSLQMNSLRAEDTAVYYCAREGRFFPGQGTPVTVSS
With B14, the concentration for a half-maximal effect (EC50) in test [10] came to 17 nM; in test [11] it was 118 nM. The molecule also gave a 50% inhibitory concentration (IC50) in test [9] of 23.1 nM.

B15: PR003550 (bispecific antibody)
light: DIQMTQSPSTLSASVGDRVTVTCRASQSIYIWLAWYQQKPGKAPNLLIYKASSLETGVPSRFSGSGSGTEFTLTISSLQPDDFATYYCQQYYGSSRTFGQGTKVEIKRTVAAPSVFIFPPSDEQLKSGTASVVCLLNNFYPREAKVQWKVDNALQSGNSQESVTEQDSKDSTYSLSSTLTLSKADYEKHKVYACEVTHQGLSSPVTKSFNRGEC
heavy: EVQLVESGGGLVQPGGSLRLSCAASGFTFSSYWMSWVRQAPGKGLEWVANIKQEGSEKYYVDSVKGRFTISRDNAKNSLYLQMNSLRAEDTAVYYCARDRAVAGAFDIWGQGTMVTVSSASTKGPSVFPLAPSSKSTSGGTAALGCLVKDYFPEPVTVSWNSGALTSGVHTFPAVLQSSGLYSLSSVVTVPSSSLGTQTYICNVNHKPSNTKVDKKVEPKSCDKTHTCPPCPAPEAAGGPSVFLFPPKPKDTLMISRTPEVTCVVVDVSHEDPEVKFNWYVDGVEVHNAKTKPREEQYNSTYRVVSVLTVLHQDWLNGKEYKCKVSNKALGAPIEKTISKAKGQPREPQVYTLPPSREEMTKNQVSLTCLVKGFYPSDIAVEWESNGQPENNYKTTPPVLDSDGSFFLYSKLTVDKSRWQQGNVFSCSVMHEALHNHYTQKSLSLSPGEPKSSDKTHTPPPPPRTEVQLVESGGGVVQPGGSLRLSCAASGFTFSNYAMTWVRQAPEKGLEWVSSISGSGVSTYYADSVKGRFTISRDNSKNTLYLQMTRLTAEDTAVYFCAKEGSSETDDHYYNVDVWGQGTTVTVSS
For the molecule B15, the EC50 in [12] amounted to 1.11 nM; in test [16], 1.32 nM.

B16: PR004268 (bispecific antibody)
light: B15 light
heavy: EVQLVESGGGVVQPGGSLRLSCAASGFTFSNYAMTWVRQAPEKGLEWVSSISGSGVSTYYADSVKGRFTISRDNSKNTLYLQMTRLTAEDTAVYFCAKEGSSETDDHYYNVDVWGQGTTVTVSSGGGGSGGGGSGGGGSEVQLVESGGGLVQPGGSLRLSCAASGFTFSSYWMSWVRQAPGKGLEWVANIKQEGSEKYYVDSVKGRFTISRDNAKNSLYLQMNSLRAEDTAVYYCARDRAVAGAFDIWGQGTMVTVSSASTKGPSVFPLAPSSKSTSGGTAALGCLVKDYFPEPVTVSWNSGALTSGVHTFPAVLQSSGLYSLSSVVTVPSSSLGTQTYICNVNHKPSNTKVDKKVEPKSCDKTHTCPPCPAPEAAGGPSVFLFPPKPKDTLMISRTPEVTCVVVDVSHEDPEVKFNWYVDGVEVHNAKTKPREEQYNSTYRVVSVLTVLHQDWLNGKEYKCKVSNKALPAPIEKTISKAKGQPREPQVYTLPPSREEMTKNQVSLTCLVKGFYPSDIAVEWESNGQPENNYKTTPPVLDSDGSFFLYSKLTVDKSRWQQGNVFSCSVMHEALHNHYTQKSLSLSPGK
With B16, the concentration giving a half-maximal response (EC50) in test [12] was 1.2 nM; in [13], 0.621 nM.

B17: PR001840 (antibody, V domains shown)
VH: EVQLVESGGGLVQPGGSLRLSCAASGFTFSSYWMHWVRQAPGKGLVWVSRINSDGSSTSYADSVQGRFTISRDNAKNTLYLQMNSLRAEDTAVYYCVRKGSSSYYHYSIEDDWGQGTLVTVSS
As to B17, the EC50 was 1.25 nM in test [1] and 0.37 nM in [3]. In [2], half-maximal inhibition (IC50) was put at 2.58 nM.
